{"source": "the DeepSol protein solubility set", "data": [{"experiment": "soluble on expression in E. coli; label from the status in PepcDB or PDB records", "values": [{"sequence": "AQPDIKFASKEYGVTIGESRIIYPLDAAGVMVSVKNTQDYPVLIQSRIYDENKEKESEDPFVVTPPLFRLDAKQQNSLRIAQAGGVFPRDKESLKWLCVKGIPPKDEDIWVDDATNKQKFNPDKDVGVFVQFAINNCIKLLVRPNELKGTPIQFAENLSWKVDGGKLIAENPSPFYMNIGELTFGGKSIPSHYIPPKSTWAFDLPKGLAGARNVSWRIINDQGGLDRLYSKNVTL", "soluble on expression in E. coli": "soluble"}, {"sequence": "MDYQQLANQIKQWAIELGFEKVGICDVDLSEHEPALQAWLDAGYHGEMDWMARHGMMRARPAELLPGTLRVISARINYLPPQAQFASNLSDPNQAYISRYALGRDYHKLVRNQLKKLGEKIEQEVGKLGYRPFVDSAPILERPLAQKAGLGWTGKHSLILDKENGSWFFLGELLVDIPLPVDEPSENQCGKCTACITSCPTNAIVAEGVVDARRCVSYLTIEYSGVIPLEFRRAMGNRIYGCDDCQLVCPWNRFAPLTQQSDFHRRQSLNNADLVVLFEWDEATFLKNMEGSAIRRIGHQQWRRNLIIAMGNAPYSPRIIDTLQRHLGQSELLDEHIHWALEEQTQKTATPRQHARLIRIIEKGLPRDA", "soluble on expression in E. coli": "not soluble"}, {"sequence": "MSLNAQTLLANVAELVKTKLKPLVDDIDRKGYYPEAFMRELGAIGAVGIEAEGGNGLGLATRIAVLREIGKECGATSFSAWCQAACAWYLHQTPNQAVKDKYLADILQGKVLAGTGMSNTVKHLAGIEKHNLQAECVEGGYTVNGALPWVSNIGEDHIWANTAQIGGGYVMFITGGQREGVSLQNCPEFCALEGTHTFSLNFKDVFIPDEDIIAAPEQFAGYIQSIKAGFILLQIGIGAGVIDGSLGIIRLVNVVNAEVNSYLDDGYDSLKARLDGAWAETERLAGLAWDNTPDNLATLKLREAAAVLALAAAQSAALHSGAKGYLMRSPAQRRVGEAMFVAIVTPAIKHLCKEIAAIEAAKEGHHHHHH", "soluble on expression in E. coli": "not soluble"}, {"sequence": "MEVKMPFVVFVKRSVRFPGKHSYMIGGKSLLEIIVSKLSNIGKVYVFTKDKDIICNGCSIEFDTTNGIITDSVLAAIDKFGTFFAVAGDMPLIKPELVSKMLSQYKGSPLFPRHMDGMLEPLFGIYTEDLYNALKEYLDKGGESLHAFLLTQPLQYYDIGSDDEVNFININYKSDIEKYRDLLVQLLEHHHHHH", "soluble on expression in E. coli": "soluble"}, {"sequence": "MGSDKIHHHHHHGCDREEDERFPSGHHDPIEGDGEMVPINVKVDGVDEFPGGAVTRSGEILTKIVQPLDSTYDSGYDVETTIESLLPVNPVQTRGNMANMQFRVVAYKNNSITAANYAGTAVYSTNASGIASIVANTATPAAVSGQWVLRPGTYAFVFYSYGTNSAPAALSGNWSTTVTHNQDFMLCQKTGVDVKADASGQCLLSGISFSRQCAQLQLCVVAKEFNNNTVQQCAATISGLSNSPVTWNASQTTLPVTGTSGTLNVAWTNPNATTVNSNVYKVLPQTNRTLTIKFTTLKIGNGQMNNAITVSATSRIFSAAGNYKITVSIVPNYISVRSYKWARGNLYKSGSNFYFEASQSNYHGGATEGGFIGWNTLDIGVGKYNSGNYSTANDPCYQVVPPGTWETPSDGQLQDLINAGVTYSGSPKGFWFGGNNGVFLLALGSRDQSSTTINNTISKNGAWAFYWSRTPSGKTAKGLNAMQGNNSAGIDNSWARPDGRTIRCVKR", "soluble on expression in E. coli": "not soluble"}, {"sequence": "MSEQNTAKTLPDRNEIEESSTWRLEDIFQTDTEWEKEFQAIKELLPKLTEFKGKLGDSANNLLEALQYEDEISMRLGKLYTYAHMRYDQDTTNSVYQALNDRATNLYSQVSSSTAYIVPEILSISEDTLQTFLKENRDLSVYEHALEEITRQRPHVLSEAEEALLAEASEVMSTSSNTFGMLNNADLKFPSIKGEDGEEVEITHGRYIQFLESDDRRVREDAFKAVYETYGKYKNTFASTLSGAVKRNNFNARVRKYDSARQAALSNNNIPEAVYDQLIESVNDNLHLLHRYIDIRKRALGLDELHMYDLYTPLVPEVKMNVKYEEAQDMLLKSLHVLGDEYVDILKEAYENRWVDVYENKGKRSGAYSSGAYGTNPYILMNWHDNVNNLFTLAHEFGHSVHSYYTRKTQPHVYGDYSIFVAEVASTCNEALLNDYLLKTTEDKKERLYLLNHYLEGFRGTVFRQTMFAEFEHIIHKKVQEGHAVTPDMLTEIYYDLNKKYFGDALVIDEEIGLEWSRIPHFYYNYYVYQYATGFSAATALSKQILEEGQPAVERYINEFLKAGSSDYPIEVLKKAGVDMASPEPVKEALQVFEEKLNELEALLFEEK", "soluble on expression in E. coli": "not soluble"}, {"sequence": "EFSGSFNRQFKLNKPVIPVNTEYVTRKEFNEYKDSNDQRLTKIENKVDKLEIKVDKLEKKVDKLEVKVDKLVETVNAQGEDLNNFKVEVRGTLQSQGETLQLILQTLQGMSKRLDSVEGRLDSMDGRLDSMETRLDKID", "soluble on expression in E. coli": "soluble"}, {"sequence": "LPHLMKYMGSKRELLDFIISSINDLDIESNWFCDLFSGTSVVGCSLKDEYNVQINDIQIYTSIFANTYLPNINKLINSTELEKIKDRVLFYVDEFYRKYPDLIFDYNSIDNYEKLTKLEIQQQNLIYSNFEIGFHLFVKYYSGTYWSYTQCVWIDSIRAVAEEYKGKSDYYIILSSLIYAMSYTSQSTGHFAQFRDVTESNMHDIMLYRIRDIWTYFEKKFLEILNMVDVEATNRYTITTLDYLDCLRLIERNTIVYADPPYSSVHYSRFYHAIETLIRYDYPNVKYKGRYREDRHQSPFGKKTEVKNAFGKLFKGVKNKNSHLILSYSDNGMITQDEIMEIGNSIMGNQYKGDIQVKEYIHSKMGRSDIHSMGVNELIISYKRQ", "soluble on expression in E. coli": "not soluble"}, {"sequence": "MKVLDSRDFAKVKAIAIERASYRNIGALAVYIGSMTGMRISEVLALTWPDIDTKLCVIHVTRSWDHLYGTGFKPTKTDSSVRDIEISPSVIELLNKIHQEQAASYLRTGYRDEDQMIMRDPRHNVITDSACNKALHVIQNKAGIPEDKQITFHGLRHSHVSYLISKGVDIYYISKRLGHSDVTITMKVYGHLLEHHHHHH", "soluble on expression in E. coli": "soluble"}, {"sequence": "AHHHHHHGSRIVAITDIHGRRSMVEKLVDVVRREDVDVILIAGDITHFSGAEEAERVLSPLLTLEIPLLAVMGNCDGRDVLDFLEERGVSVHDKRVEIKGVGVVGFGGSNITPFSTIWEFSDDVIYSSLIRNYRQGDIVLTHAPPYGTKLDKTHSGIHAGSMGLRKFIEEKQPKLCICGHIHEGRGVEKIGNTIVVNPGPLARGYYAVIEGDSVELLNLKG", "soluble on expression in E. coli": "soluble"}, {"sequence": "MALNADDEDFEWEPPSEAEMKVIQARRERQDKISKLMGDYLLKGYKMLGECCELCGTILLQDKQKKNYCVACQELDSDVDKDNPALNAQAALSQVRERQLATQPVPESNGASSSEPPLSITGQPRPEHCEGAASGLRGPPPTVQPTPLSIPTPASNFLPPSNPPVQTTPPVGSSGSSLHHHPALSSAEEAVLHKLRWATQELQHAASVEASIQLCNLIRGCAESLRSLKELQLS", "soluble on expression in E. coli": "not soluble"}, {"sequence": "MSFNLSVIGAGLPVAQSTTTLIDALRTHRMAVVQAPPGTGKTTLVPPIAHNVTGGRVIVVAPRRVAVRAAAHHLVQLDQSSCDQPSTHRVGYTIRGERSRGDLVEFVTPGVLLRRLISNPELDGVSAVVVDEVHERQLDTDLVLGMLVELRELRDDLTVIAMSAT", "soluble on expression in E. coli": "not soluble"}, {"sequence": "MGSDKIHHHHHHMSDPIPAAPTDNGVPVSLRSSRGRGWHGFGASLLEIRAGTYRIPAAEHHRIGVHIGSPVRADCVCDGARVSRIQAHGDVDVIPAGLPGEWTDSADCRILHIALSDTFVRRTFDQLELKPSQAQIRRRLQVRDPRLQHIAWAMAAELEAEDASDPLYAESLCTALVARLADSQPAFREHRRTLAPKAAARVIDYVEANLERRMTLAELAALVSISVPHFKVLFRETLGMPVHQYVVRRRVERAKALLLEGRLGISQIALEAGFAHQSHMAHWMNRVLGATPTEIARSGARGGLRLAYDGEDR", "soluble on expression in E. coli": "not soluble"}, {"sequence": "MGSDKIHHHHHHAACSNDEKITESTPKTVALTVKLPEFGGASSRAIDPETTTGNKVTINGPVKIIARVSQGGAITNTISENITAGSMSTITVSGAAQWIEVEANGDNSTETDNVNTRQGSATSSKVRLFGGATINPGSGGNATCTPTISPDMARVEVKGSLGTSWTHLTDLKVKGIYINNIKLTRGVSSLTRIASAAWNTEYAPSGKFEKMFNDNLGGVGAGAGVAQITPGQADGYNFFPQKDNTLPLPTTKEDVMKNSIHIIMEVEFTRADGVPVVGPQWLNVVALKDNTATNYITDFEAGNVYSIDLADIKDIMDVPVPPVTPNPDPETVSVDLTVSIGQWTVVQVKPEV", "soluble on expression in E. coli": "not soluble"}]}]}
